Assay results published in patent US20120034231A1 (Novartis, published 2012).
Like-named read-outs stand apart in the source and are kept apart here.

B1: MOR05271 IgG4 (antibody, V domains shown)
VH: QVQLKESGPALVKPTQTLTLTCTFSGFSLSTSTMGVSWIRQPPGKALEWLAWIYWDDDKDYSTSLKSRLTISKDTSKNQVVLTMTNMDPVDTATYYCARANPDLGYFDYWGQGTLVTVSS
VL: DIALTQPASVSGSPGQSITISCTGTSSDLGESNYVSWYQQHPGKAPKVMIYDVNKRPSGVSNRFSGSKSGNTASLTISGLQAEDEADYYCGSYDEEDNVFGGGTKLTVLG
notes: IgG4
B2: MOR05271 Fab (Fab, V domains shown)
VH: QVQLKESGPALVKPTQTLTLTCTFSGFSLSTSTMGVSWIRQPPGKALEWLAWIYWDDDKDYSTSLKSRLTISKDTSKNQVVLTMTNMDPVDTATYYCARANPDLGYFDYWGQGTLVTVSS
VL: DIALTQPASVSGSPGQSITISCTGTSSDLGESNYVSWYQQHPGKAPKVMIYDVNKRPSGVSNRFSGSKSGNTASLTISGLQAEDEADYYCGSYDEEDNVFGGGTKLTVLG
B3: MOR05281 IgG4 (antibody, V domains shown)
VH: QVQLKESGPALVKPTQTLTLTCTFSGFSLSTRGVGVSWIRQPPGKALEWLALIYWDEDKYYSTSLKTRLTISKDTSKNQVVLTMTNMDPVDTATYYCARYQSGYYYNNDGWGVDIWGQGTLVTVSS
VL: DIQMTQSPSSLSASVGDRVTITCRASQSISSWLNWYQQKPGKAPKLLIYAASSLQSGVPSRFSGSGSGTDFTLTISSLQPEDFATYYCQQYYAFPHTFGQGTKVEIKR
notes: IgG4
B4: MOR05281 Fab (Fab, V domains shown)
VH: QVQLKESGPALVKPTQTLTLTCTFSGFSLSTRGVGVSWIRQPPGKALEWLALIYWDEDKYYSTSLKTRLTISKDTSKNQVVLTMTNMDPVDTATYYCARYQSGYYYNNDGWGVDIWGQGTLVTVSS
VL: DIQMTQSPSSLSASVGDRVTITCRASQSISSWLNWYQQKPGKAPKLLIYAASSLQSGVPSRFSGSGSGTDFTLTISSLQPEDFATYYCQQYYAFPHTFGQGTKVEIKR
B5: MOR05286 Fab (Fab, V domains shown)
VH: QVQLKESGPALVKPTQTLTLTCTFSGFSLSTSGMGVSWIRQPPGKALEWLALIDWTDDKYYSTSLKTRLTISKDTSKNQVVLTMTNMDPVDTATYYCARTVGKGLYRVDNWGQGTLVTVSS
VL: DIELTQPPSVSVAPGQTARISCSGDNLGSKFAYWYQQKPGQAPVLVIYDDSKRPSGIPERFSGSNSGNTATLTISGTQAEDEADYYCQSWDSSSGNDVFGGGTKLTVLG
notes: also called MOR5286
B6: MOR05286 IgG4 (antibody, V domains shown)
VH: QVQLKESGPALVKPTQTLTLTCTFSGFSLSTSGMGVSWIRQPPGKALEWLALIDWTDDKYYSTSLKTRLTISKDTSKNQVVLTMTNMDPVDTATYYCARTVGKGLYRVDNWGQGTLVTVSS
VL: DIELTQPPSVSVAPGQTARISCSGDNLGSKFAYWYQQKPGQAPVLVIYDDSKRPSGIPERFSGSNSGNTATLTISGTQAEDEADYYCQSWDSSSGNDVFGGGTKLTVLG
notes: IgG4; also called MOR5286
B7: MOR05278 IgG4 (antibody, V domains shown)
VH: QVQLVESGGGLVQPGGSLRLSCAASGFTFSSYGMSWVRQAPGKGLEWVSYIEPKLFWYATFYAASVKGRFTISRDNSKNTLYLQMNSLRAEDTAVYYCARNDFMEPAYFALWGQGTLVTVSS
VL: DIELTQPPSVSVAPGQTARISCSGDNLGSYYAYWYQQKPGQAPVGVIYDDSERPSGIPERFSGSNSGNTATLTISGTQAEDEADYYCSSYTYSKNNVFGGGTKLTVLG
notes: IgG4
B8: MOR05278 Fab (Fab, V domains shown)
VH: QVQLVESGGGLVQPGGSLRLSCAASGFTFSSYGMSWVRQAPGKGLEWVSYIEPKLFWYATFYAASVKGRFTISRDNSKNTLYLQMNSLRAEDTAVYYCARNDFMEPAYFALWGQGTLVTVSS
VL: DIELTQPPSVSVAPGQTARISCSGDNLGSYYAYWYQQKPGQAPVGVIYDDSERPSGIPERFSGSNSGNTATLTISGTQAEDEADYYCSSYTYSKNNVFGGGTKLTVLG

Assays:
[1] = biological target: T1, cynomolgus IL12Rβ1 (cynomolgus, UniProt A0A2K5VWV1 24-662); test: FACS, 1 µg/ml IgG4, BaF3 cells expressing cyno IL12Rβ1
T1 construct: whole, on cells; also called cyno IL12Rβ1; Cyno IL-12Rβ1
Experimental: (§1) Cells of the respective cell line (BaF3 cells stable transfected with cyno and human IL12Rβ1; HEK EBNA and Jurkat cells stable transfected with cyno IL12Rβ1) were counted and adjusted to 2×10⁷ cells/ml in PBS/3% FCS/0.02% NaN₃ (FAGS buffer). FAGS staining was performed in V-bottom 96-well microtiter plates (NUNC™, Wiesbaden, Germany) and 1×10⁵ cells per well were mixed with a) purified Fab fragments or b) purified IgG4 or c) positive control antibody (mouse anti IL12Rβ1, R&D Systems, Cat#: MAB839), diluted in FACS buffer and incubated at […] for 1 h. Cells were then washed 2× with 200 μl FACS buffer/well and taken up in 100 μl phycoerythrin-conjugated goat anti-human IgG (H+L) secondary antibody (Jackson ImmunoResearch) which has been diluted 1:200 in FACS buffer. After 45 min incubation at 4° C. cells were washed 3× with FAGS buffer, resuspended in 100 μl of FACS buffer and cell surface binding of IL12Rβ1 specific antibodies was measured via FL2 fluorescence intensity of cells in FACSCalibur™ (Becton Dickinson).

[2] = biological target: T2, human IL4Rα/Fc (human, UniProt P24394 26-232, limits assumed); test: ELISA, antigen directly coated, IgG4
T2 construct: also called rh IL4Ra/Fc
T2 sequence (looked up): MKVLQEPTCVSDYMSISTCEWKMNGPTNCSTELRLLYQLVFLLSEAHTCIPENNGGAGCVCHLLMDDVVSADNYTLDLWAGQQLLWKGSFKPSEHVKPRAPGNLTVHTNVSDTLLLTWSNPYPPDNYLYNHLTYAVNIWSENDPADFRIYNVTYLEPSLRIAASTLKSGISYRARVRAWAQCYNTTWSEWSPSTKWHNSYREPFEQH

[3] = biological target: T1, cynomolgus IL12Rβ1; test: FACS on Baf3 cells transfected with cyno IL12Rβ1, IgG4
Experimental: as §1

[4] = biological target: T3, human IL12Rβ1 (human, UniProt P42701 24-662); test: FACS on Baf3 cells transfected with human IL12Rβ1, IgG4
T3 construct: On stably transfected Ba/F3 cells in FACS; on primary human T cells within PBMC in the functional assay; also called human IL12Rβ1 transfected Baf3 cells; Ba/F3/IL12Rβ1 expressing cells
Experimental: as §1

[5] = biological target: T1, cynomolgus IL12Rβ1; test: FACS, 1 µg/ml Fab, HEK cells expressing cyno IL12Rβ1
Experimental: as §1

[6] = biological target: T4, recombinant human IL12Rβ1/Fc fusion protein (human, UniProt P42701 24-545); test: solution equilibrium titration (SET), BioVeris ECL, Fab
T4 construct: Bought from R&D Systems; Partly used biotinylated; also called rh IL12Rβ1

[7] = biological target: T1, cynomolgus IL12Rβ1; test: FACS, 1 µg/ml Fab, Jurkat cells expressing cyno IL12Rβ1
Experimental: as §1

[8] = biological target: T4, recombinant human IL12Rβ1/Fc fusion …; test: BioVeris competition; Fab titrated with IL12Rβ1/Fc, competitor rhIL-12 on beads
Experimental: (§2) For the IL12 and IL23 binding inhibition assay, 25 μg recombinant human IL12 and 20 μg IL23 (R&D Systems) were directly coupled (NHS/EDC coupling) to 250 μl carboxylic acid M-270 Dynal magnetic beads (2×109 beads/ml), 50 μl Fab antibodies per well (20 nM stock) in 1:4 dilution steps (Fab concentration: 0.6 pM-10 nM) were incubated for 2 h with 50 μl of 40-100 pM IL12Rβ1/Fc fusion in 96 well plates (Nunc). 25 μl IL12 or IL23 coated beads and 1:500 diluted Streptavidin detection antibody labeled with BV-tag™ according to instructions of supplier (BioVeris Europe) were added to each well and incubated for 1.5 h. Detection was performed by BioVeris M-384 SERIES® Workstation (BioVeris Europe). EC50 determination was performed by evaluation of the resulting data by a 4-parameter logistic fit model (XLfit, IDBS).

[9] = biological target: T4, recombinant human IL12Rβ1/Fc fusion …; test: solution equilibrium titration (SET), BioVeris ECL, Fab; remark: listed apart in the source
[10] = biological target: T4, recombinant human IL12Rβ1/Fc fusion …; test: BioVeris competition; Fab titrated with IL12Rβ1/Fc, competitor rhIL-23 on beads
Experimental: as §2

Binder | MFI (mean fluorescent intensity) [1] | binding result [2] | EC50 [3] | EC50 [4] | MFI (mean fluorescent intensity) [5] | Kd [6] | MFI (mean fluorescent intensity) [7] | EC50 [8] | Kd [9] | EC50 [10]
B1 | 134 | no binding | 0.073 nM | 0.143 nM | – | – | – | – | – | –
B2 | – | – | – | – | 2 | 0.021 nM | 3 | 0.01 nM | 0.021 nM | 0.025 nM
B3 | 144 | no binding | 1 nM | 1.2 nM | – | – | – | – | – | –
B4 | – | – | – | – | 2 | 0.001 nM | 2 | 0.06 nM | 0.001 nM | 0.07 nM
B5 | – | – | – | – | 368 | 0.059 nM | 249 | 0.09 nM | 0.059 nM | 0.17 nM
B6 | 271 | no binding | 4.8 nM | 2.4 nM | – | – | – | – | – | –
B7 | 350 | no binding | 0.931 nM | 0.9 nM | – | – | – | – | – | –
B8 | – | – | – | – | 3 | 0.031 nM | 4 | 0.08 nM | 0.031 nM | 0.24 nM
